Source: article PMC10786891, “Massively parallel profiling of RNA-targeting CRISPR-Cas13d”
Changes are numbered by the printed parent chain. In names and notes the source's numbering stands.

T1: EsCas13d, nuclease-dead (Eubacterium siraeum, UniProt B0MS50, R295A;H300A;R849A;H854A)
T1 sequence: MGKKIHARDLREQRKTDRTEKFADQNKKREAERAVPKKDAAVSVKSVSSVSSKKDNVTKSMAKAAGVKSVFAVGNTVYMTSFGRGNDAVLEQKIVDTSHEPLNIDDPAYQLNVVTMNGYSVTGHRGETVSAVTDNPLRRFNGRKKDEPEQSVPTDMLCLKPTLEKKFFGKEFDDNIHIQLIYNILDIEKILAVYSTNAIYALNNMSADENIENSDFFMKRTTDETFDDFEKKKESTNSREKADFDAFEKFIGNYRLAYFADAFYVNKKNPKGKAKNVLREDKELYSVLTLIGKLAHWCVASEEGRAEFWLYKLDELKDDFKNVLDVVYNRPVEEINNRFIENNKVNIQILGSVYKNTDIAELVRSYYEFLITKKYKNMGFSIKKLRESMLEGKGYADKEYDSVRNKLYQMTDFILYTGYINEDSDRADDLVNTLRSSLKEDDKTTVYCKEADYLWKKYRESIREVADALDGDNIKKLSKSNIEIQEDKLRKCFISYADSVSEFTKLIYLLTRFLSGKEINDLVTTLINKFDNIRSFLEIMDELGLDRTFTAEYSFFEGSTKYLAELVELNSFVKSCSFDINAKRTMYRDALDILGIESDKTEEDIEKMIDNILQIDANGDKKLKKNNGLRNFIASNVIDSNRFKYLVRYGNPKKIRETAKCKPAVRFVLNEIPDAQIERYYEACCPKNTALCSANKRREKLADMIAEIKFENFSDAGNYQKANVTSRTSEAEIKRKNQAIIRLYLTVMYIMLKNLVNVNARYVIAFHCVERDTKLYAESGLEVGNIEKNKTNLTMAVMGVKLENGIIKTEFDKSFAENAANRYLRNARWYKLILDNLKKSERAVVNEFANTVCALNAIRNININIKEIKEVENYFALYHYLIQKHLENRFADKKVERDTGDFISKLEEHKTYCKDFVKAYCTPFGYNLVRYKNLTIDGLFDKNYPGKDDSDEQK

B1: target 1 C7U,A18G (mixed)
RNA 1: CACCCGUGCAAAAAUGCAGGGGUCUAAAACUGAGCGGAUAACCUCUCUAUGG
RNA 2: GGGAAUGGAUCCACAUCUACGAAUUCGUACCAUGGAGAGGUUAUUCGCUCACCGAGAUCGGAAGAGCACACGU
B2: target 1 insG 3' of 16,insU 3' of 13 (mixed)
RNA 1: B1 RNA 1
RNA 2: GGGAAUGGAUCCACAUCUACGAAUUCGUACCAUAGAGGAGUGUUAUCCGCUCACCGAGAUCGGAAGAGCACACGU
B3: target 1 insA 3' of 7,insU 3' of 4 (mixed)
RNA 1: B1 RNA 1
RNA 2: B2 RNA 2 with G38A, A39G, G42U, U43A, A45C, U46A, C48G, G49C, C50U
B4: target 2 MT 5'PFS GGA 3'PFS UUC (mixed)
RNA 1: CACCCGUGCAAAAUUGCAGGGGUCUAAAACCUUCUCCAAAUUGUUUCAUCCU
RNA 2: GGGAAUGGAUCCACAUCUACGAAUUCGGAAGGAUGAAACAAUUUGGAGAAGUUCAGAUCGGAAGAGCACACGU
B5: target 2 MT 5'PFS GAU 3'PFS AAC (mixed)
RNA 1: B4 RNA 1
RNA 2: B4 RNA 2 with G28A, A29U, U52A, U53A
B6: target 2 MT 5'PFS UGC 3'PFS UCA (mixed)
RNA 1: B4 RNA 1
RNA 2: B4 RNA 2 with G27U, A29C, U53C, C54A
B7: target 2 MT 5'PFS UGC 3'PFS UCG (mixed)
RNA 1: B4 RNA 1
RNA 2: B4 RNA 2 with G27U, A29C, U53C, C54G
B8: target 2 MT 5'PFS GAC 3'PFS AUC (mixed)
RNA 1: B4 RNA 1
RNA 2: B4 RNA 2 with G28A, A29C, U52A
B9: target 2 MT 5'PFS GAU 3'PFS AAG (mixed)
RNA 1: B4 RNA 1
RNA 2: B4 RNA 2 with G28A, A29U, U52A, U53A, C54G
B10: target 2 MT 5'PFS UGC 3'PFS AAG (mixed)
RNA 1: B4 RNA 1
RNA 2: B4 RNA 2 with G27U, A29C, U52A, U53A, C54G
B11: target 2 MT 5'PFS UGC 3'PFS AAA (mixed)
RNA 1: B4 RNA 1
RNA 2: B4 RNA 2 with G27U, A29C, U52A, U53A, C54A
B12: target 2 MT 5'PFS ACC 3'PFS AUU (mixed)
RNA 1: B4 RNA 1
RNA 2: B4 RNA 2 with G27A, G28C, A29C, U52A, C54U
B13: target 2 MT 5'PFS ACC 3'PFS AUG (mixed)
RNA 1: B4 RNA 1
RNA 2: B4 RNA 2 with G27A, G28C, A29C, U52A, C54G
B14: target 2 MT 5'PFS CGC 3'PFS CCG (mixed)
RNA 1: B4 RNA 1
RNA 2: B4 RNA 2 with G27C, A29C, U52C, U53C, C54G
B15: target 2 MT 5'PFS GGA 3'PFS UUG (mixed)
RNA 1: B4 RNA 1
RNA 2: B4 RNA 2 with C54G
B16: target 2 MT 5'PFS CUC 3'PFS AUU (mixed)
RNA 1: B4 RNA 1
RNA 2: B4 RNA 2 with G27C, G28U, A29C, U52A, C54U
B17: target 2 MT 5'PFS CCU 3'PFS UAG (mixed)
RNA 1: B4 RNA 1
RNA 2: B4 RNA 2 with G27C, G28C, A29U, U53A, C54G
B18: target 2 MT 5'PFS UGG 3'PFS AUG (mixed)
RNA 1: B4 RNA 1
RNA 2: B4 RNA 2 with G27U, A29G, U52A, C54G
B19: target 2 MT 5'PFS UGG 3'PFS AUC (mixed)
RNA 1: B4 RNA 1
RNA 2: B4 RNA 2 with G27U, A29G, U52A
B20: target 2 MT 5'PFS GUC 3'PFS AGA (mixed)
RNA 1: B4 RNA 1
RNA 2: B4 RNA 2 with G28U, A29C, U52A, U53G, C54A
B21: target 2 MT 5'PFS UGA 3'PFS CUC (mixed)
RNA 1: B4 RNA 1
RNA 2: B4 RNA 2 with G27U, U52C
B22: target 2 MT 5'PFS GAC 3'PFS AUU (mixed)
RNA 1: B4 RNA 1
RNA 2: B4 RNA 2 with G28A, A29C, U52A, C54U
B23: target 2 MT 5'PFS GAC 3'PFS CGA (mixed)
RNA 1: B4 RNA 1
RNA 2: B4 RNA 2 with G28A, A29C, U52C, U53G, C54A
B24: target 2 MT 5'PFS CUC 3'PFS AUG (mixed)
RNA 1: B4 RNA 1
RNA 2: B4 RNA 2 with G27C, G28U, A29C, U52A, C54G
B25: target 2 MT 5'PFS GUC 3'PFS AGC (mixed)
RNA 1: B4 RNA 1
RNA 2: B4 RNA 2 with G28U, A29C, U52A, U53G
B26: target 2 MT 5'PFS CGC 3'PFS CCA (mixed)
RNA 1: B4 RNA 1
RNA 2: B4 RNA 2 with G27C, A29C, U52C, U53C, C54A
B27: target 2 MT 5'PFS GAC 3'PFS AUG (mixed)
RNA 1: B4 RNA 1
RNA 2: B4 RNA 2 with G28A, A29C, U52A, C54G
B28: target 2 MT 5'PFS CUA 3'PFS CAC (mixed)
RNA 1: B4 RNA 1
RNA 2: B4 RNA 2 with G27C, G28U, U52C, U53A
B29: target 2 MT 5'PFS UGC 3'PFS AAC (mixed)
RNA 1: B4 RNA 1
RNA 2: B4 RNA 2 with G27U, A29C, U52A, U53A
B30: target 2 MT 5'PFS CUC 3'PFS AUC (mixed)
RNA 1: B4 RNA 1
RNA 2: B4 RNA 2 with G27C, G28U, A29C, U52A
B31: target 2 MT 5'PFS CUC 3'PFS AUA (mixed)
RNA 1: B4 RNA 1
RNA 2: B4 RNA 2 with G27C, G28U, A29C, U52A, C54A
B32: target 2 MT 5'PFS GAU 3'PFS AAU (mixed)
RNA 1: B4 RNA 1
RNA 2: B4 RNA 2 with G28A, A29U, U52A, U53A, C54U
B33: target 2 MT 5'PFS UGA 3'PFS CUA (mixed)
RNA 1: B4 RNA 1
RNA 2: B4 RNA 2 with G27U, U52C, C54A
B34: target 2 MT 5'PFS ACC 3'PFS AUA (mixed)
RNA 1: B4 RNA 1
RNA 2: B4 RNA 2 with G27A, G28C, A29C, U52A, C54A
B35: target 2 MT 5'PFS GAU 3'PFS AAA (mixed)
RNA 1: B4 RNA 1
RNA 2: B4 RNA 2 with G28A, A29U, U52A, U53A, C54A
B36: target 2 MT 5'PFS GGA 3'PFS UUU (mixed)
RNA 1: B4 RNA 1
RNA 2: B4 RNA 2 with C54U
B37: target 2 MT 5'PFS ACC 3'PFS AUC (mixed)
RNA 1: B4 RNA 1
RNA 2: B4 RNA 2 with G27A, G28C, A29C, U52A
B38: target 2 MT 5'PFS GUC 3'PFS AGG (mixed)
RNA 1: B4 RNA 1
RNA 2: B4 RNA 2 with G28U, A29C, U52A, U53G, C54G

Target: T1, EsCas13d, nuclease-dead
Test: crRNA (strand 1, pre-loaded); Mg2+; 40 mM Tris-HCl pH 7.5, 150 mM NaCl, 6 mM MgCl2, 1 mM DTT, 0.1% Tween-20, 0.2 mg/ml BSA; 25 C; 10 min per concentration, then washed
Conditions: tags: His6-TwinStrep-SUMO cleaved; N-terminal SNAP kept (SNAP-Surface 488); label: 3' end held by stalled T7 RNA polymerase

In order of falling Kd:
1. B1  ~70 nM
2. B7  60 ± 24 nM
3. B21  47 ± 20 nM
4. B36  41 ± 9 nM
5. B4  28 ± 6 nM
6. B2  23.2 ± 3.2 nM
7. B26  22 ± 4 nM
8. B27  22 ± 5 nM
9. B15  18.3 ± 2.7 nM
10. B20  16.8 ± 2.8 nM
11. B5  16 ± 5 nM
12. B38  15.3 ± 2.1 nM
13. B10  15 ± 3.3 nM
14. B11  14 ± 5 nM
15. B23  13.6 ± 1.5 nM
16. B8  13.5 ± 2.6 nM
17. B25  13.2 ± 2.3 nM
18. B29  13 ± 4 nM
19. B22  12.1 ± 2.1 nM
20. B12  ~12 nM
21. B9  11.8 ± 1.6 nM
22. B6  10.4 ± 1.8 nM
23. B32  9.1 ± 1.6 nM
24. B33  8.7 ± 1.1 nM
25. B14  8.1 ± 1.3 nM
26. B35  6.9 ± 1 nM
27. B34  6.7 ± 3.2 nM
28. B3  6.3 ± 0.5 nM
29. B13  5.8 ± 1.5 nM
30. B19  5.5 ± 0.6 nM
31. B37  5.5 ± 0.7 nM
32. B18  5.2 ± 0.5 nM
33. B28  3.01 ± 0.32 nM
34. B16  2.2 ± 0.4 nM
35. B31  2.11 ± 0.28 nM
36. B30  1.91 ± 0.31 nM
37. B24  1.74 ± 0.26 nM
38. B17  1.16 ± 0.21 nM
